Measurements: patent publication US20100111943A1 (MEDICAL COLLEGE OF GEORGIA RESEARCH INSTITUTE, published 2010)

Legend:
Experiment in all cases: co-IP: anti-FLAG M2 immunoprecipitates immunoblotted with anti-CHIP
[1] = molecular target: T1, FLAG (F)-tagged hsp90α (wild type) (UniProt P07900 1-732)
T1 construct: Expressed from a plasmid described in cited literature, or translated in vitro; also called F-hsp90α; F-hsp90; not shown: FLAG tag
Experimental: (§1) Following culture in the plates for 24 hours, cells were transfected by Lipofectamine Plus following the protocol provided by Invitrogen (Carlsbad, Calif.). Transfected cells were cultured in full-medium containing drugs dissolved in DMSO or vehicle for 24 hours. Cellular extracts were prepared by directly adding lysis buffer (25 mM Tris-phosphate, pH 7.8, 2 mM DTT, 2 mM 1,2-diaminocyclohexane-N′,N′,N′,N′-tetraacetic acid, 10% glycerol, 0.2% Triton X-100) to the cells on ice. For immuno-precipitations (IP), 2×10⁶ cells in 100 mm dishes were transfected and/or treated as described above. Cellular extracts were prepared and immunoprecipitation performed as described 24. For immunoblotting, cellular extracts or immunoprecipitates were separated on SDS-PAGE, transferred to a nitrocellulose membrane, probed with antibodies, and visualized with enhanced chemiluminescence, as described (Chen, Z., et al., Mol. Pharmacol., 69:1527-33 (2006)).
(§2) The mutants were also analyzed for their ability to bind ATP, as well as for binding to co-chaperones, client proteins and the biotinylated (B) GA (geldanamycin) (Kamal, A., et al., Nature., 425:407-10 (2003)). Precipitates from the mixture of cell lysates containing hsp90α and ATP-sepharose were analyzed with anti-F antibody.

[2] = molecular target: T2, FLAG (F)-tagged hsp90α K100R mutant (UniProt P07900 1-732)
T2 construct: Made by site-directed mutagenesis, expressed by transfection; also called K/R mutant at K100; acetylation-deficient mutant; not shown: FLAG tag
Experimental: as §1, §2

[3] = molecular target: T3, FLAG (F)-tagged hsp90α K292R mutant (UniProt P07900 1-732)
T3 construct: Made by site-directed mutagenesis, expressed by transfection; also called K/R mutant at K292; acetylation-deficient mutant; not shown: FLAG tag
Experimental: as §1, §2

[4] = molecular target: T4, FLAG (F)-tagged hsp90α K327R mutant (UniProt P07900 1-732)
T4 construct: Made by site-directed mutagenesis, expressed by transfection; also called K/R mutant at K327; acetylation-deficient mutant; not shown: FLAG tag
Experimental: as §1, §2

[5] = molecular target: T5, FLAG (F)-tagged hsp90α K478R mutant (UniProt P07900 1-732)
T5 construct: Made by site-directed mutagenesis, expressed by transfection; also called K/R mutant at K478; acetylation-deficient mutant; not shown: FLAG tag
Experimental: as §1, §2

[6] = molecular target: T6, FLAG (F)-tagged hsp90α K546R mutant (UniProt P07900 1-732)
T6 construct: Made by site-directed mutagenesis, expressed by transfection; also called K/R mutant at K546; acetylation-deficient mutant; not shown: FLAG tag
Experimental: as §1, §2

[7] = molecular target: T7, FLAG (F)-tagged hsp90α K558R mutant (UniProt P07900 1-732)
T7 construct: Made by site-directed mutagenesis, expressed by transfection; also called K/R mutant at K558; acetylation-deficient mutant; not shown: FLAG tag
Experimental: as §1, §2

[8] = molecular target: T8, FLAG (F)-tagged hsp90α K292Q mutant (UniProt P07900 1-732)
T8 construct: Made by site-directed mutagenesis, expressed by transfection; also called K/Q mutant at K292; acetylation-mimetic mutant; not shown: FLAG tag
Experimental: as §1, §2

[9] = molecular target: T9, FLAG (F)-tagged hsp90α K69R mutant (UniProt P07900 1-732)
T9 construct: Made by site-directed mutagenesis, expressed by transfection; also called K/R mutant at K69; acetylation-deficient mutant; not shown: FLAG tag
Experimental: as §1, §2

Measured: binding result

B1: CHIP (other, UniProt Q9UNE7 1-303, looked up)
chain: MKGKEEKEGGARLGAGGGSPEKSPSAQELKEQGNRLFVGRKYPEAAACYGRAITRNPLVAVYYTNRALCYLKMQQHEQALADCRRALELDGQSVKAHFFLGQCQLEMESYDEAIANLQRAYSLAKEQRLNFGDDIPSALRIAKKKRWNSIEERRIHQESELHSYLSRLIAAERERELEECQRNHEGDEDDSHVRAQQACIEAKHDKYMADMDELFSQVDEKRKKRDIPDYLCGKISFELMREPCITPSGITYDRKDIEEHLQRVGHFDPVTRSPLTQEQLIPNLAMKEVIDAFISENGWVEDY
notes: Endogenous protein co-immunoprecipitated from cell lysates and detected with anti-CHIP
binds: all assays above
